Target: human CD28 in its native form displayed on the cell surface (human) (UniProt P10747)
Experiment: cell-based or functional assay

Substance: TGN1412 (IgG4) (antibody)
- IL2 secretion, PBMC of 20 donors on plate-coated protein, 72 h: < 80000 pg/mL
